7 molecules from paper PMC5535997 (International Journal of Molecular Sciences, 2017) can be followed below.

To fix the notation:
B1: VHH54.1 displayed on S. aureus RN4220 (VHH)
VHH: QVQLVESGGGLVQAGASLRLSCATSGRTLSGYAMGWFRQAPGKERELTAAISWSGISTYYTDSVKGRFTISRDNAKNTVYLQMNSLNSEDTGVYYCVADVGWPLRADRGSWGQGTQVTISS
notes: also called anti-NP-VHH4
B2: VHH54 displayed on S. aureus RN4220 (VHH)
VHH: QVQLQESGGGLVQAGGSLRLSCAASGRTLSSYAMGWFRQAPGKERELVSAISWSGLSTYYEDSVKGRFTISRDNAKNTMYLQMNSLKPEDTAIYYCAADIGWPLRADSGSWGQGTQVTVSS
notes: also called anti-NP-VHH2
B3: VHH62 displayed on S. aureus RN4220 (VHH)
VHH: QVQLVESGGGLVQPGGSLRLSCAASGFTLDGYAIGWFRQAPGKEREGVSCISSSGKSTNYADSVKGRFTISRDNQQNTVYLQMNSLKPEDTAVYYCAATVGLFCVGGTYGMDYWGKGTLVKMSS
notes: also called anti-NP-VHH3
B4: C8 displayed on S. aureus RN4220 (VHH)
VHH: QVHSWSLGGGLVQSGGSLTLSCAASGFTFTNAYMSWVRQGPGKEPEWVSGINARGVGTRYADFVKGRFTISRDNAKTILYLQMNSLKPEDTALYYCASDFGPSGGRWDPPRRRGQGTWVTVSS
B5: VHH52 displayed on S. aureus RN4220 (VHH)
VHH: QVQLQESGGGLVQAGGSLRLTCALSERTSTSYAQGWFRQPPGKEREFVASLRTHDGNTHYTDSVKGRFTISRDNAENTLYLQMNSLKTEDTAVYYCAASLGYSGAYASGYDYWGQGTQVTVSS
notes: also called anti-NP-VHH1
B6: D4 displayed on S. aureus RN4220 (VHH)
VHH: QLQLVETGGGLVQSGGSLRLSCAASGFTLGSYAIGWYRQAPGKERERVSCISSSGISTNYADPVKGRFTISRDNAKNTVYLQMDSLKPEDTAVYYCAADSFFCLGPNMDYWGKGTLVIVSS
notes: also called anti-NP-VHH5
B7: VHH52.1 displayed on S. aureus RN4220 (VHH)
VHH: QLQLVESGGGLVQAGGSLRLSCAASGSTFSNYAMGWFRQAPGKEREFVASIRWIGGSTRYADSVKGRFTTSRDNAKNALYLQMNSLKTEDTAVYYCAASLGYSASYASGYDYWGQGTQVTVSS
notes: also called anti-NP-VHH6

influenza A virus nucleoprotein (NP), strain A/WSN/33, from infected MDCK cells (Influenza A virus A/WSN/1933 (H1N1), [35S]Met/Cys radiolabel), sequence (P15682 whole entry): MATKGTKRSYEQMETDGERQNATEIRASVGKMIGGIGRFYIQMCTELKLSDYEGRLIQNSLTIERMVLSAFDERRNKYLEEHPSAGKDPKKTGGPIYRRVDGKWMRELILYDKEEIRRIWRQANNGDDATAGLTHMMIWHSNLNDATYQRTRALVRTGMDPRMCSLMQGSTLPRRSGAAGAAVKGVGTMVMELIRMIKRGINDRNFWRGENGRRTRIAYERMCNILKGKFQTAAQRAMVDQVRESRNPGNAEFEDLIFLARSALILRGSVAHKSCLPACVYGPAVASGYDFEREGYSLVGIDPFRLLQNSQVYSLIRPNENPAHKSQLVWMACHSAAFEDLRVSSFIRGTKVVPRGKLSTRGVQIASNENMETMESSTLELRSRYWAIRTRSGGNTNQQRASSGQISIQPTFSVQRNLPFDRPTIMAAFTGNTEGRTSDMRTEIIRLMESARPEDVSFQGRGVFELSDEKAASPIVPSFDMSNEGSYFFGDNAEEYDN

This test addresses influenza A virus nucleoprotein (NP), strain A/WSN/33, from infected MDCK cells (Influenza A virus A/WSN/1933 (H1N1), [35S]Met/Cys radiolabel). Briefly: pull-down. The settings on record: partners not purified.
For B1, the binding result is on record as “binds”.

On to B2, for which the binding result is on record as “binds”.

Turning to B3, the binding result is given as “binds”.

With B4, the binding result is on record as “binds”.

Take B5: the binding result was “binds”.

For the molecule B6, the binding result is on record as “binds”.

For the molecule B7, the binding result is on record as “binds”.
